# Test results: ChEMBL document CHEMBL2074146, “Transport of the sulfated, amidated bile acid, sulfolithocholyltaurine, into rat hepatocytes is mediated by Oatp1 and Oatp2” (Hepatology, 2002)
# T1: Solute carrier organic anion transporter family member 1A4 (Rattus norvegicus, UniProt O35913)
# T1 sequence (O35913 whole entry): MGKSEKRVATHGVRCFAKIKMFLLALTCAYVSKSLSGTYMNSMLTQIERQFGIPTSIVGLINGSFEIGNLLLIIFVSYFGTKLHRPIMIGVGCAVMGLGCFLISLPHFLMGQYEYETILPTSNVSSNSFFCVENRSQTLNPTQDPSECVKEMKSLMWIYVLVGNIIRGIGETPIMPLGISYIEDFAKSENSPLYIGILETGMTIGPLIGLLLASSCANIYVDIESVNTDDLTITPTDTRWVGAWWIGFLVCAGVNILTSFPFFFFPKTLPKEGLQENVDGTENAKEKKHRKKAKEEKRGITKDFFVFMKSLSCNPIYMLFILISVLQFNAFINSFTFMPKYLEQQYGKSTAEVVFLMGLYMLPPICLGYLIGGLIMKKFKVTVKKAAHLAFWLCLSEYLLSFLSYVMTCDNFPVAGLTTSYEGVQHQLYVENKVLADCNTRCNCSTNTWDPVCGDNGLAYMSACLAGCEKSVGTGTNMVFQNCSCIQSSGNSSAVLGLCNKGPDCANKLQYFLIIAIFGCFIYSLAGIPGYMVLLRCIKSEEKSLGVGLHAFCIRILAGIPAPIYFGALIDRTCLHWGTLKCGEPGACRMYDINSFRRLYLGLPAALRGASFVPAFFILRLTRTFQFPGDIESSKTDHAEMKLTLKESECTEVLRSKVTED
# How the values were obtained:
# Format in all cases: functional, cell-based
# [1] = biological target: T1, Solute carrier organic anion transporter family member 1A4; assay: (§1) TP_TRANSPORTER: uptake in Oatp2-expressing HeLa cells; conditions: human
# [2] = substrate: [H][C@]12CC[C@]3([H])[C@]([H])(CC[C@]4(C)C([C@H](C)CCC(=O)NCCS(=O)(=O)O)CC[C@@]34[H])[C@@]1(C)CC[C@@H](OS(=O)(=O)O)C2; assay: TP_TRANSPORTER: uptake in Oatp1-expressing HeLa cells
# [3] = substrate: [H][C@]12CC[C@]3([H])[C@]([H])(CC[C@]4(C)C([C@H](C)CCC(=O)NCCS(=O)(=O)O)CC[C@@]34[H])[C@@]1(C)CC[C@@H](OS(=O)(=O)O)C2; assay: as §1
molecule,measurement,setting,value
C[C@]12CC[C@@H]3c4ccc(O)cc4CC[C@H]3[C@@H]1CC[C@@H]2O[C@@H]1O[C@H](C(=O)O)[C@@H](O)[C@H](O)[C@H]1O [ESTRADIOL 17B GLUCURONIDE],Activity,[1],substrate [+]
Solute carrier organic anion transporter family member 1A1 (Rattus norvegicus) (protein) MEETEKKIATQEGRLFSKMKVFLLSLTCACLTKSLSGVYMNSMLTQIERQFDISTSVAGLINGSFEIGNLFFIVFVSYFGTKLHRPVVIGIGCVIMGLGCLLMSLPHFFMGRYEYETTISPTGNLSSNSFLCMENRTQTLKPTQDPAECVKEMKSLMWICVMVGNIIRGIGETPIVPLGISYIEDFAKSENSPLYIGILEMGKVAGPIFGLLLGSYCAQIYVDIGSVNTDDLTITPSDTRWVGAWWIGFLVCAGVNILTSIPFFFLPKALPKKGQQENVAVTKDGKVEKYGGQAREENLGITKDFLTFMKRLFCNPIYMLFILTSVLQVNGFINKFTFLPKYLEQQYGKSTAEAIFLIGVYSLPPICLGYLIGGFIMKKFKITVKKAAYLAFCLSVFEYLLFLCHFMLTCDNAAVAGLTTSYKGVQHQLHVESKVLADCNTRCSCSTNTWDPVCGDNGVAYMSACLAGCKKFVGTGTNMVFQDCSCIQSLGNSSAVLGLCKKGPECANRLQYFLILTIIISFIYSLTAIPGYMVFLRCVKSEEKSLGVGLHTFCIRVFAGIPAPVYFGALIDRTCLHWGTLKCGQRGACRMYDINSFRHIYLGLPIALRGSSYLPAFFILILMRKFQFPGDIDSSATDHTEMMLGEKESEHTDVHGSPQVENDGELKTKL,Km,[2],12.6 µM
Solute carrier organic anion transporter family member 1A4 (Rattus norvegicus) (protein) MGKSEKRVATHGVRCFAKIKMFLLALTCAYVSKSLSGTYMNSMLTQIERQFGIPTSIVGLINGSFEIGNLLLIIFVSYFGTKLHRPIMIGVGCAVMGLGCFLISLPHFLMGQYEYETILPTSNVSSNSFFCVENRSQTLNPTQDPSECVKEMKSLMWIYVLVGNIIRGIGETPIMPLGISYIEDFAKSENSPLYIGILETGMTIGPLIGLLLASSCANIYVDIESVNTDDLTITPTDTRWVGAWWIGFLVCAGVNILTSFPFFFFPKTLPKEGLQENVDGTENAKEKKHRKKAKEEKRGITKDFFVFMKSLSCNPIYMLFILISVLQFNAFINSFTFMPKYLEQQYGKSTAEVVFLMGLYMLPPICLGYLIGGLIMKKFKVTVKKAAHLAFWLCLSEYLLSFLSYVMTCDNFPVAGLTTSYEGVQHQLYVENKVLADCNTRCNCSTNTWDPVCGDNGLAYMSACLAGCEKSVGTGTNMVFQNCSCIQSSGNSSAVLGLCNKGPDCANKLQYFLIIAIFGCFIYSLAGIPGYMVLLRCIKSEEKSLGVGLHAFCIRILAGIPAPIYFGALIDRTCLHWGTLKCGEPGACRMYDINSFRRLYLGLPAALRGASFVPAFFILRLTRTFQFPGDIESSKTDHAEMKLTLKESECTEVLRSKVTED,Km,[3],14.6 µM
